Measurements as given in the RNAGym collection of RNA variant scans (doi:10.1073/pnas.2313332121).

B1: TPR t1 (parent)
chain: GACCAAUCUGCCCUCAGAGCUCGAGAACAUCUUCGGAUGCAGAGGAGGCAGGCUUCGGUGGCGCGAUAGCGCCAACGUCCUCAACCUCCAAUGCAUCCCACCACAUGAUGAUGCCUGAAGAGCCUUGGUUUUUUG

Variants of: B1
Assay: polymerase ribozyme fitness, log enrichment relative to wild type (log ratio); higher = more active; in vitro selection for triplet polymerase activity
Method in brief: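 For each subunit of a heterodimeric triplet polymerase ribozyme, a mutant library was built by PCR and transcribed, then taken through a single in vitro selection round in triplicate. Selection involved annealing to a biotinylated primer, the partner subunit and triplets, incubation frozen at −7 °C, gel excision of extended constructs, capture on streptavidin beads and RT-PCR. Genotypes were retained after Illumina sequencing of inputs and outputs only with ≥10 input reads and ≥1 read in each output. Fitness is defined as the logarithm of a genotype's enrichment relative to wild-type enrichment, using inverse-variance-weighted averages across replicates, with the logarithm taken to base 2.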

First: G61A U78C C85U U96C C101U U109G
Second: G61A U78G A84U C86A
The “polymerase ribozyme fitness (log ratio)” value of the first is lower: -5.66 for the first, -1.71 for the second.

Going from G61A U78G C85U A90C to G61A U78G G120A, the “polymerase ribozyme fitness (log ratio)” value rises from -2.22 to 0.458.

First: G61A U81G A105U U112G
Second: G61A U92A C123A G127U
The “polymerase ribozyme fitness (log ratio)” value of the first is lower: -5.6 for the first, -1.55 for the second.

Compared with G61A U109A, G61A U109C is higher in “polymerase ribozyme fitness (log ratio)” value: -5.19 for the first, -2.02 for the second.

Compared with G61A U112A, G61A U112A C124U is higher in “polymerase ribozyme fitness (log ratio)” value: 1.31 for the first, 1.83 for the second.

First: G61A U112G
Second: G61A U112G G120U G122C
The “polymerase ribozyme fitness (log ratio)” value of the first is higher: 0.603 for the first, -1.64 for the second.

First: G61A U116A
Second: G61A U116G G128C
The “polymerase ribozyme fitness (log ratio)” value of the first is higher: -2.68 for the first, -4.66 for the second.

First: G61A U130C
Second: G61A U133A
The “polymerase ribozyme fitness (log ratio)” value of the first is higher: 0.204 for the first, -0.418 for the second.

First: G61C
Second: G61C A74C C85U
The “polymerase ribozyme fitness (log ratio)” value of the first is higher: -1.63 for the first, -5.35 for the second.

G61C A83C C89U and G61C A83G are within 0.2 log units of each other in “polymerase ribozyme fitness (log ratio)” value: -2.95 for the first, -3.02 for the second.

First: G61C A90U G93A
Second: G61C C73U C85U G117A U129C
The “polymerase ribozyme fitness (log ratio)” value of the first is higher: -4.85 for the first, -5.49 for the second.

First: G61C C76U
Second: G61C C79U C101G
The “polymerase ribozyme fitness (log ratio)” value of the first is lower: -3.1 for the first, -1.64 for the second.

Compared with G61C C80G G117C, G61C C82U is higher in “polymerase ribozyme fitness (log ratio)” value: -7.35 for the first, -1.83 for the second.

First: G61C C85U U116A C123U U129A
Second: G61C C89A U132C
The “polymerase ribozyme fitness (log ratio)” value of the first is lower: -6.64 for the first, -3.89 for the second.

Going from G61C C89G G113U U133C to G61C C89U G113C G120C, the “polymerase ribozyme fitness (log ratio)” value falls from -4.45 to -4.9.

Compared with G61C C94G, G61C C94U is higher in “polymerase ribozyme fitness (log ratio)” value: -2.92 for the first, -1.25 for the second.

First: G61C C94U U130A U131G
Second: G61C C97U
The “polymerase ribozyme fitness (log ratio)” value of the first is lower: -3.54 for the first, -2.51 for the second.

Compared with G61C C98U C123G U133A G135U, G61C C104A is lower in “polymerase ribozyme fitness (log ratio)” value: -1.22 for the first, -3.92 for the second.

Going from G61C C104U A111C to G61C C104U G110A, the “polymerase ribozyme fitness (log ratio)” value falls from -1.59 to -2.86.

Compared with G61C C114U, G61C C123G is higher in “polymerase ribozyme fitness (log ratio)” value: -4 for the first, 0.189 for the second.

Going from G61C C124G to G61C G63C, the “polymerase ribozyme fitness (log ratio)” value falls from -0.476 to -3.6.

Compared with G61C G93U, G61C G93U U130A is lower in “polymerase ribozyme fitness (log ratio)” value: -2.81 for the first, -3.65 for the second.

First: G61C G107A U112A G117U
Second: G61C G107C C114A A119U
The “polymerase ribozyme fitness (log ratio)” value of the first is lower: -6.86 for the first, -6.57 for the second.

Compared with G61C G110U, G61C G113U is lower in “polymerase ribozyme fitness (log ratio)” value: -3.71 for the first, -4.1 for the second.

Going from G61C U78G U112A G128A to G61C U81A C124G U132C, the “polymerase ribozyme fitness (log ratio)” value rises from -6.61 to -2.36.

Compared with G61C U109A, G61C U112A is higher in “polymerase ribozyme fitness (log ratio)” value: -4.34 for the first, -0.897 for the second.

First: G61C U125G
Second: G61C U126A
The “polymerase ribozyme fitness (log ratio)” value of the first is higher: -1.95 for the first, -2.98 for the second.

First: G61U
Second: G61U A68U U87A C114G
The “polymerase ribozyme fitness (log ratio)” value of the first is higher: 0.14 for the first, -6.91 for the second.

Going from G61U A83C to G61U A83G U112C, the “polymerase ribozyme fitness (log ratio)” value rises from -0.327 to 1.59.

First: G61U A83U A90G
Second: G61U A84G U96G
The “polymerase ribozyme fitness (log ratio)” value of the first is higher: 0.371 for the first, -0.74 for the second.

Compared with G61U A84U, G61U A90U is lower in “polymerase ribozyme fitness (log ratio)” value: -0.0265 for the first, -2.11 for the second.

G61U A95U and G61U A100C are within 0.2 log units of each other in “polymerase ribozyme fitness (log ratio)” value: -0.221 for the first, -0.248 for the second.

First: G61U A100C U106A U112A
Second: G61U A103C
The “polymerase ribozyme fitness (log ratio)” value of the first is higher: 1.26 for the first, -5.47 for the second.

First: G61U A105C
Second: G61U A105U
The “polymerase ribozyme fitness (log ratio)” value of the first is lower: -1.99 for the first, -1.36 for the second.

First: G61U A118G
Second: G61U A119G
The “polymerase ribozyme fitness (log ratio)” value of the first is lower: 0.1 for the first, 1.3 for the second.

Going from G61U C73U A121G to G61U C82A, the “polymerase ribozyme fitness (log ratio)” value falls from 0.407 to -0.605.

Compared with G61U C82A G107A, G61U C82G A91C U112C is higher in “polymerase ribozyme fitness (log ratio)” value: -5.28 for the first, 0.876 for the second.

Compared with G61U C86A A103C, G61U C86A A119C G120A is higher in “polymerase ribozyme fitness (log ratio)” value: -5.4 for the first, -2.79 for the second.

Compared with G61U C89A, G61U C94U is higher in “polymerase ribozyme fitness (log ratio)” value: -1.5 for the first, 0.338 for the second.

Going from G61U C97A to G61U C97A C123A, the “polymerase ribozyme fitness (log ratio)” value falls from -3.26 to -4.17.

Compared with G61U C97G G113U, G61U C98A is higher in “polymerase ribozyme fitness (log ratio)” value: -5.53 for the first, -3.78 for the second.

Compared with G61U C98A C99A, G61U C98U is higher in “polymerase ribozyme fitness (log ratio)” value: -5.19 for the first, -1.55 for the second.
